Data on 21 sequences can be found in a protein production outcome set (Wang et al. 2014).

This data set in a line: label from the status in PepcDB records.
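Also: failed if final PepcDB status was selected cloned or expressed and not failed if soluble or beyond.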

Regarding “MNQSPSILRKTRKGEYMAFADLAAEKTQGVDYDFLVLDRASAVAIVAPHGGWIEHGTSELATAVAGDDFSLYLFEGLKPKRPHSELHIPSEYFDENRCVDLVSRARIVIGMHGRADGDDPETIWLGGLGKELRDAIAAALEAAGFKAITSGHRLPGEHKNNICNRGINQAGVQLEPCRWSNRCLSATETHSTSATTAIISRLSIAA”, the protein production result is “failed”.

In the case of “MNQTSSHSSLFSSSLPPVPDRPLSPSGRFNRLSYLAWYGFINLIGLMCLFGTGLIMGIFSLSQVTWDDQLLNALSGSFGFIMFGISILFFYFHVVLMIRRLHDTNRSGWWCLLFFVPVIQFILILYLLFIPGSKASNDYGIPRPSPVWEKILGWMIVIVLLLSLLMLGRLVSFMLGTGHLDFPQELIPKNTGYF”, the protein production entry is listed as “failed”.

For “MNQVEMTEFPVGKPQEALYGVASTPDGALWFTLAKGNAIGRLSPDGAVSRFPLPHADGQPTTITCGPDGRPWFTLSSANAIGRLAPDGALRMFELPRPASRPFGIAGGHDGCLWFAEMAGDRIGRITIDGDIEEYDLPVKGGYPSCMAAGRDGLMWFTLNQAGAVGSISATAAPRIFPLGAADAAPVGIASDAQGALWIAQAGNGAIARFDAGGRITEFPLHSRAARPHAIAADAAGNLWFTEWGANRIGRISEAGDLAGYELAAPGSEPHGIAIDPHGCVWAALETGRLVRLQASPRDLEHHHHHH”, the protein production result was “failed”.

With “MNRARIIVAGIGPGGASDITPAVLSAIGRSDVVVGYKYYFRFIEPYLRPDTHCVDTGMKKERQRAEEAFGYALSGKTVCVISSGDAGIYGMAPLIYEMKRAKGVEMDIEVLPGISAFQKAASLLGAPIGHDLCLISLSDLMTPWPIIEKRIVAAASADFVTAIYNPKSEGRYWQLYRFVEIFMQYRSADTPVGLVRQAGREEEQVTVTTLGEFDPEVVDMFTVVLVGNSQSYCYEGHFITPRGYYPEEEIEAKGIGQEIMIKSFRTIEKELHRQDWPLDHKWALLHAIHTTADFDMENILYTDAGAVASLYEMIEAGRLRTIVTDVTMVTSGIRKGALERLGVEAKCYLHDPRVAELAARHGITRTQAGIRLAVEEHPDALFAFGNAPTALQELADLIRRGKASPAGIIAAPVGFVHVQESKHAVKPFRSIPKIIVEGRKGGSNLAATLVNAILCYNDAEQLRPGRDV”, the protein production result was “failed”.

“MNRIEHYHDWLRDAHAMEKQAESMLESMASRIDNYPELRARIEQHLSETKNQIVQLETILDRNDISRSVIKDSMSKMAALGQSIGGIFPSDEIVKGSISGYVFEQFEIACYTSLLAAAKNAGDTASIPTIEAILNEEKHMADWLIQHIPQTTEKFLIRSETDGVEAKK”: the protein production result is given as “not failed”.

Regarding “MNRIKAVGYENNELKEKAQLLADQLNLQLDQNADTCLFVTPEKLTLKIRNFSLMFADFSAMTWSKRRGEGKRQGLIRACKPTKGIKILDATAGWGKDAAILATFGADVVMLERHPVMAALLADALSRRNEADIQKMCLSLIASDAISFLHSLQEKDYPDIIYIDPMHPERNKSALVKKEMQVLQQLIGTDHDAMELIELSLSHVKSRVVVKWPQKVKPLLPPDASIDGKTVRFDIYMAQFSSN”, the protein production entry is “failed”.

“MNRNGLLIALALFAGIGLTFGLFPGLDLWLAGLFYDTAAKTFPMRSMPDLEFARDFAMWVAWAIAAPSIFALVYKMIRPDRPLVMPGRTVAFLLISITLSAGVLTNMTFKSHWGRPRPAAVTEFNGPWQFKAWWDNSGACPKNCSFFSGEGATAYWTFAPAALTPPAVRPYAYAAAFTFGTVTSGLRMAFGGHFFTDVAIAGLVTFLVIWLLYALIYRWAWSRTSDEAIDAALTRAFWPLYRLRLKKWRGQDIGPAPAA”: the protein production entry is given as “failed”.

On to “MNRNGQRRFLEFFAGGGMARLGLGADWACAFANDFDPVKAATYRANFADAGKHFQEGDVFALSAERLPDADLAWASSPCQDFSLAGARAGLAGGRSSAFFGFWSLMRSLSAEGRAPSVIVIENVVGLLTSHGGADFTALCQALHEEGYRFGALEIDAGAFVPQSRPRVFVVATRNPPGDLVGSSAFHTRAVREAAARLPADLQASWVWWGAPSPPARNTDLASMLEPDDRAVW”, for which the protein production result is “failed”.

As to “MNRNLLLLLCSLFCFIAIGKPSDFPPVPNPPKLINDFAGMLSPAEVAELERKVNTFNDSTSIEISVVIITNLGDYDIAEYAFQLGALWGIGKDKKDNGVLLLISKENRKAFIATGYGMEGVLPDARCKRIIQAELIPQFKRSNYFNGINFTIDAIMRYSKNEYTADPVAANANRIKPAYVLLFIIGVIILVSFLNRNNNSGSNRGGNNGGYGSGGGGLLGGLLGGAIGSGYRGRSYGGGFGSGSSGGGFGGFGGGGFGGGGAGGDW”, the protein production entry is recorded as “failed”.

Consider “MNRNRLPALTPGLAWSRPMNGAVDHKGYEQPTYDLEFAETATEIRRYGPYLVAEVTMAGDRSTAITRGFRVLARYIFGGNAESRRIEMTVPVSQLPAGEDLWTVRFTMPAVRSASLLPAPKDSRIRFVTVPPSRQAVRRFSGWPTDHALRRQAEGLAHWIAERGLPKREGPYFYFYDSPMTLPWQRRNEVAFGLGEGLEHHHHHH”, for which the protein production entry is recorded as “not failed”.

In the case of “MNRPHSATGDRPLALVDEHAHAWSPKTARARFRKGLTGPTAGVAAGHTQANLISVPADWAYDMLLFCTRNPQPCPVLDVTDAGSWTTVLADGADLRTDLPRYRVWRDGELVDEPSDVREHWRDDLVTFLIGCSFTFEWALAAAGVPIRHVEQGRNVPMYVTSRACRPAGRLRGPMVVSMRPVPPAHLSAAIHESSLLPAVHGSPVHCGDPSALGIDDLDRPDFGEAVYREPDDIPVFWACGVTPQAAVMASRPPFALTHAPGQMFLTDARDEQYRVALEHHHHHH”, the protein production entry was “failed”.

On to “MNRTARRDGTPEKPRRGSQGGSRGDYGKPKRSHAKPQSANSGRPIKQRKQRDSEMLISNARPARHQHVGRREAGDGSTEG”, for which the protein production result is listed as “failed”.

For the sequence “MNRTLAYKLGAIALLILLLLIPLLMIDGLIRDRQEVRDGVLQDIARSSSYSQRLTGPLLVVPYRRTVREWVTEEKTEKRVLQEREQRGELYFLPDRFALDGQMRTELRYRGIYQARLYHVDNKVAGYFQVPAHYGIEEDLEDYQFETPFLAMGISDIRGIENALRLSLNGASVDFEPGSRVGLLGSGVHAPLQGVDGRQAQRLEYAFDLSLLGSERLDIVPVGRDSQVILKADWPHPSFGGEFLPSEREITAQGFTARWQTSFFATNMEEALRSCVEEQRCDGFQARAFGVGLVDPVDQYLKADRAIKYALLFITLTFAGFFLFEVLKRLAVHPVQYALVGLALAFFYLLLLSLAEHVGFELAYLVSAGACVGLIGFYLCFVLRSVARGLGFSVGLAGLYGLLYGLLSAEDYALLMGSLLLFAVLAAVMVLTRRLDWYGVGRKDFPAVPARA”, the protein production result is given as “failed”.

Regarding “MNRVDLSIFIPDSLTAETGDLKIKTYKVVLIARAASIFGVKRIVIYHDDADGEARFIRDILTYMDTPQYLRRKVFPIMRELKHVGILPPLRTPHHPTGKPVTGEYRQGLTVKRVKKGTLVDIGADKLALCREKLTVNRIMSFRVVRLGKEILIEPDEPEDRYWGYEVLDTRRNLAESLKTVGADVVVATSRNASPITSILDEVKTRMRGAREAAILFGGPYKGLPEIDADIWVNTLPGQCTETVRTEEAVLATLSVFNMLTQIDEKDE”, the protein production entry is “not failed”.

With “MNRYQALFQRLSAAQQGAFVPFVTIGDPNPEQSLAIMQTLIDAGADALELGMPFSDPLADGPTIQGANLRALAAKTTPDICFELIAQIRARNPETPIGLLMYANLVYARGIDDFYQRCQKAGVDSVLIADVPTNESQPFVAAAEKFGIQPIFIAPPTASDETLRAVAQLGKGYTYLLSRAGVTGAETKANMPVHALLERLQQFDAPPALLGFGISEPAQVKQAIEAGAAGAISGSAVVKIIETHLDNPAKQLTELANFTQAMKKATKI”, the protein production result was “not failed”.

Regarding “MNSDPTRERILHGLITLYILKELVKRPMHGYELQKSMFETTGQALPQGSIYILLKTMKERGFVISESSVNEKGQQLTVYHITDAGKKFLCDHSQALQLARKIIDDLLSTVDIIENRN”, the protein production result was “not failed”.

Take “MNSELTFKQGLKDTMPTVFGYIGIGIAFGMIGHSEGFSVWVILLLSLIVYAGSAQFIMVSMLATHSPIMSIVLSVFLVNSRIILMSMTTASYFKNESLLKNILLGTLLTDESFALGMNKQNYTEGKLNFSWFNASNLLAYLVWALASAIGALLGNLLANPEKLGLGFAVIAMFIGLLYLQLISDKTLGLMLQLVMVGITLVLFYFGLIFLPSNLLVLFVTLIACALGVGVKRVFF”: the protein production result was “failed”.

Regarding “MNSESKLSQKANSSFTMDDFAKALENHDYQFQKGQVVYGKVFQLDPDGAYVDIGGKSSAYIPRDEASLRAVNDLAAVLPLHEELEFIIIREQDAEGQVTLSRRQLEINHIWEKLAQMKENSQPVDVKVTGVNKGGVTVDVQSLRGFIPRSHLTERDNLEALKGHTLTAGFLEVDRNNKKLVLSQRLVTRSSNFNQLEIGQLVEGKITGIKPFGVFVDLNGLSALLHIKQVSQKFIESLEKVFQPGQTIKAIVIDLDQGKGRVAISTRALENFPGEVLENFEEVMASAEARANRAANKMNEGGVGV”, the protein production result is listed as “failed”.

For the sequence “MNSGRPETMENLPALYTIFQGEVAMVTDYGAFIKIPGCRKQGLVHRTHMSSCRVDKPSEIVDVGDKVWVKLIGREMKNDRIKVSLSMKVVNQGTGKDLDPNNVIIE”, the protein production result was “not failed”.

On to “MNSIKNVPARVLSRRPGHSLEAEREQFDKTQAISISKAINTQEAPVKEKHARRIILGTHHEKGAFTFWSYAIGLPLPSSSILSWKFCHVLHKVLRDGHPNVLHDCQRYRSNIREIGDLWGHLHDRYGQLVNVYTKLLLTKISFHLKHPQFPAGLEVTDEVLEKAAGTDVNNIFQLTVEMFDYMDCELKLSESVFRQLNTAIAVSQMSSGQCRLAPLIQVIQDCSHLYHYTVKLLFKLHSCLPADTLQGHRDRFHEQFHSLRNFFRRASDMLYFKRLIQIPRLPEGPPNFLRASALAEHIKPVVVIPEEAPEDEEPENLIEISTGPPAGEPVVVADLFDQTFGPPNGSVKDDRDLQIESLKREVEMLRSELEKIKLEAQRYIAQLKSQVNALEGELEEQRKQKQKALVDNEQLRHELAQLRAAQLEGERSQGLREEAERKASATEARYNKLKEKHSELVHVHAELLRKNADTAKQLTVTQQSQEEVARVKEQLAFQVEQVKRESELKLEEKSDQLEKLKRELEAKAGELARAQEALSHTEQSKSELSSRLDTLSAEKDALSGAVRQREADLLAAQSLVRETEAALSREQQRSSQEQGELQGRLAERESQEQGLRQRLLDEQFAVLRGAAAEAAGILQDAVSKLDDPLHLRCTSSPDYLVSRAQEALDAVSTLEEGHAQYLTSLADASALVAALTRFSHLAADTIINGGATSHLAPTDPADRLIDTCRECGARALELMGQLQDQQALRHMQASLVRTPLQGILQLGQELKPKSLDVRQEELGAVVDKEMAATSAAIEDAVRRIEDMMNQARHASSGVKLEVNERILNSCTDLMKAIRLLVTTSTSLQKEIVESGRGAATQQEFYAKNSRWTEGLISASKAVGWGATQLVEAADKVVLHTGKYEELIVCSHEIAASTAQLVAASKVKANKHSPHLSRLQECSRTVNERAANVVASTKSGQEQIEDRDTMDFSGLSLIKLKKQEMETQVRVLELEKTLEAERMRLGELRKQHYVLAGASGSPGEEVAIRPSTAPRSVTTKKPPLAQKPSVAPRQDHQLDKKDGIYPAQLVNY”, for which the protein production result is given as “not failed”.

For “MNSIWKQYIDILQGVVKPALGCTEPICAAYAASVATQMLGSKPETIDVFVSDNLYKNSMGVFVPRTGRVGLAIAAATGAIGGNPDAGLEVLAKITEEEVDEAQKLIDNGCVVVQRETTDEFIYCRVIAKNAVHNAEVTISGGHTLIIEKRLDDNVIFTLDSSLPKTSTASICDGVDITISSIYDFATQAEFDDIKFILEAKELNIALAQEGLNNPYGLEVGRTYQKNIEKGLLAKSLDSDILIYTSAASDARMGGATLPAMSNYGSGNQGIAATIPVVKMADFFNADDEKLARAFIMSHLGAIYIKSHYPPLSAFCGNAVTSAAASMAMVYLAGGTFEQSCSAIQNTISDTSGMICDGAKSTCAMKVGSSAQSAMKSALLALNDHCVTKQGVIADDVEKTIKNIGRMITTGMPNIDHEIIEIMAS”, the protein production entry is “failed”.
